This is an account of results in paper PMC2729490 (Biochemistry, 2009).

Experiment [1] concerns the target HVR peptide (22 amino acid synthetic peptide representing the hypervariable region of K-Ras4B) (human). Kind of experiment: ITC. A general note: In ITC the heat of successive injections is recorded.
The test system of another experiment is CaM. Conditions: helix 5 independently expressed; ref [22]; cited from earlier work.
The target in experiment [2] is calmodulin (human, Ca2+-loaded) (human) (UniProt P0DP23). Kind of experiment: NMR titration.

The term Kd denotes a measure of binding affinity in units of concentration. Low values mean higher affinity, high ones lower affinity. As usually defined, the stoichiometry N is the number of molecules, sites or subunits per partner or assembly. “calmodulin (human, Ca2+-loaded) (from UniProt P0DP23 1-149) (natural protein)”: in experiment [1], the Kd was found to be 11.2 µM, the dH is 0.65 kcal/mol and the stoichiometry N was 1.

For “α–helix 5 peptide (amino acids 151–166): hydrophobic α–helix 5 peptide (amino acids 151–166) of K-Ras4B, independently expressed, literature (RVEDAFYTLVREIRQY; isoform 2B; UniProt P01116 151-166, looked up, fragment)”, the CaM binding entry with CaM is “apparent binding to CaM”.

“HVR peptide (22 amino acid synthetic peptide representing the hypervariable region of K-Ras4B)” displayed a Kd in experiment [2] of 17.5 µM.
